The target of assay [1] is T1, recombinant human TfR1 (transferrin receptor protein 1) (human, UniProt P02786 89-760).
T1 construct: Recombinant protein in SPR and ELISA; they were assigned to this molecule; also called hTfR1; huTfR1
Description: Biacore, d0; TfR1 species not stated. Background: Surface plasmon resonance follows binding to a sensor surface in real time, without labels.

Assay [2] addresses T1, recombinant human TfR1 (transferrin …). Description: Biacore, d25; TfR1 species not stated.
Assay [3] shares this target. Description: kinetic analysis (Biacore), Table 7; TfR1 species not stated.
The target is the same in assay [4]. The assay can be described thus: Table 14, unconjugated Fab, d0; method not named (values equal ELISA row of Table 13).
The target of the next assay is T2, recombinant mouse TfR1 (mouse, UniProt Q62351 89-763).
T2 construct: Recombinant protein coated on ELISA plates
T2 sequence (Q62351 89-763 limits assumed): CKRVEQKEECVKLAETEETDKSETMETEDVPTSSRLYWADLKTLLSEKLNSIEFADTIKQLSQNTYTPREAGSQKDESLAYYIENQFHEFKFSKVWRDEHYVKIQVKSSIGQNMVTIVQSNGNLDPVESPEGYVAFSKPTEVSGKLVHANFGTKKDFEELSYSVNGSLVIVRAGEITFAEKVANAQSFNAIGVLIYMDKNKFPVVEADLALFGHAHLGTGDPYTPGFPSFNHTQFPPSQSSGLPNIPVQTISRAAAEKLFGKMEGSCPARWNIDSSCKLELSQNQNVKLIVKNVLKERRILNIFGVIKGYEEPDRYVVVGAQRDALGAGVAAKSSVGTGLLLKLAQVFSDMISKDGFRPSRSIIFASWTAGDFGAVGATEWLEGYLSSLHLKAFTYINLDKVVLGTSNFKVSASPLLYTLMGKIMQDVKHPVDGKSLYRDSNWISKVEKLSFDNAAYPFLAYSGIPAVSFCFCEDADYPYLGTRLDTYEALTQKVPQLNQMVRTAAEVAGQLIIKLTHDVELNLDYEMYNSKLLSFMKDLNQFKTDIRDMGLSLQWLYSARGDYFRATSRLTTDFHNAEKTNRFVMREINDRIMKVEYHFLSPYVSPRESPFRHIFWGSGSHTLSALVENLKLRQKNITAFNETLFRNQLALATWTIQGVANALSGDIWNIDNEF
Description: ELISA on plate-coated recombinant mouse TfR1, fluorescent anti-(H+L) IgG secondary. How it is done:
Serial dilutions of the Fab were added to plates precoated with recombinant human, cynomolgus monkey, mouse, or rat TfR1. After a short incubation, binding of the Fab was quantified by addition of a fluorescently tagged anti-(H+L) IgG secondary antibody and measurement of fluorescence intensity at 495 nm excitation and 520 nm emission.
In general terms: ELISA stands for enzyme-linked immunosorbent assay.

Assay [5] has as its target T1, recombinant human TfR1 (transferrin …). Description: ELISA on plate-coated recombinant hTfR1, fluorescent anti-(H+L) IgG-A488 detection, % normalized RFUs. The method, then: (§1) To measure binding of humanized anti-TfR antibodies to TfR1, ELISAs were conducted. High binding, black, flat bottom, 96 well plates (Corning #3925) were first coated with 100 μL/well of recombinant huTfR1 at 1 μg/mL in PBS and incubated at 4° C. overnight. Wells were emptied and residual liquid was removed. Blocking was conducted by adding 200 μL of 1% BSA (w/w) in PBS to each well. Blocking was allowed to proceed for 2 hours at room temperature on a shaker at 30) rpm. After blocking, liquid was removed and wells were washed three times with 300 μL of TBST. Anti-TfR1 antibodies were then added in 0.5% BSA/TBST in triplicate in an 8 point serial dilution (dilution range 5 μg/mL-5 ng/mL). A positive control and isotype controls were also included on the ELISA plate. The plate was incubated at room temperature on an orbital shaker for 60 minutes at 300 rpm, and the plate was washed three times with 300 μL of TBST. Anti-(H+L)IgG-A488 (1:500) (Invitrogen #A11013) was diluted in 0.5% BSA in TBST, and 100 μL was added to each well. The plate was then allowed to incubate at room temperature for 60 minutes at 300 rpm on orbital shaker. The liquid was removed and the plate was washed four times with 300 μL of TBST. […] Data was recorded and analyzed for $EC50$. […]

Assay [6] addresses T3, recombinant cynomolgus monkey (Macaca fascicularis) TfR1 (cynomolgus monkey (Macaca fascicularis), UniProt Q5RDH6 87-760 (Pongo abelii entry), limits assumed).
T3 construct: Recombinant protein; also called cTfR1; cyTfR1
T3 chain: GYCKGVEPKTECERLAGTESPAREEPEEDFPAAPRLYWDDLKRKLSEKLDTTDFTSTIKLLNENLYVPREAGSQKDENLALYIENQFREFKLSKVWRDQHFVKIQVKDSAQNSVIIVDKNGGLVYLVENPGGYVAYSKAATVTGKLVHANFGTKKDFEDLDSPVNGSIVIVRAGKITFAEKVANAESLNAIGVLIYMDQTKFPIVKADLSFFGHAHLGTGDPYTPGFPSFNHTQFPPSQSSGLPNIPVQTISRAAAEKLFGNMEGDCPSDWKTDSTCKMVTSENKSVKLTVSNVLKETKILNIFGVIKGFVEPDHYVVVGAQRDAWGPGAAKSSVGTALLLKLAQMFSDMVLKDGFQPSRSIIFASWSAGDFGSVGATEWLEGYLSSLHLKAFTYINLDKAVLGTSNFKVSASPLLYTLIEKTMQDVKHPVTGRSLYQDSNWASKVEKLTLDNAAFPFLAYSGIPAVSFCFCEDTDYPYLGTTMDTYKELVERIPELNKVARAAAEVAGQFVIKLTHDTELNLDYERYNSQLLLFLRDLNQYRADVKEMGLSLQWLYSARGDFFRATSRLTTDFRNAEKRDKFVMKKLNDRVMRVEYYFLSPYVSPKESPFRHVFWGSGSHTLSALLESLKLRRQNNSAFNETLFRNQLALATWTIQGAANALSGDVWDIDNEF
The assay can be described thus: ELISA on plate-coated recombinant cTfR1, fluorescent anti-(H+L) IgG-A488 detection, % normalized RFUs. How it is done:
as §1

B1: humanized anti-TfR Fab 3M12 VH4/Vκ3 (Fab, V domains shown)
VH: QVQLQESGPGLVKPSQTLSLTCTVTGYSITSGYYWNWIRQPPGKGLEWIGYITFDGANNYNPSLKNRVSISRDTSKNQFSLKLSSVTAEDTATYYCTRSSYDYDVLDYWGQGTTVTVSS
VL: DIQMTQSPSSLSASVGDRVTITCRASQDISNFLNWYQQKPGQPVKLLIYYTSRLHSGVPSRFSGSGSGTDFTLTISSLQPEDFATYYCQQGHTLPYTFGQGTKLEIKR
notes: also called 3M12 (VH4/Vk3); anti-TfR Fab 3M12 VH4/Vk3
For orientation: Kd means a measure of binding affinity in units of concentration. The koff is a measure of how fast the partners let go of each other. Usually kon stands for the rate constant with which the complex forms. Usually EC50 stands for the concentration that produces a half-maximal response. Regarding B1, the Kd in assay [1] turned out to be 0.341 nM; in assay [2] it was 0.486 nM; in assay [3] it was 0.341 nM. In addition, the koff in assay [3] was found to be 8.61e-05 s⁻¹. Besides, the kon in assay [3] was determined as 252000 M⁻¹ s⁻¹. Moreover, in assay [4], the Binding affinity was 0.5 nM. The binding result with recombinant mouse TfR1 is on record as “no binding (tested: 500 nM)”. The EC50 in assay [5] is 2.1 nM; in assay [6] it was 9.9 nM.

Values taken from patent US11844843 (DYNE THERAPEUTICS, dated 2023).
